Reference: publication PMC10397247

Legend:
[1] = biological target: T1, 4H1913-AA; assay: two-hybrid library CCmax;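 further: natural log of median RNA to DNA barcode read ratio; higher means stronger binding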
T1 chain: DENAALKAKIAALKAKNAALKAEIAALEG

[2] = biological target: T2, 4H483-AA; assay: two-hybrid library CCmax; settings: mean of both orientations;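 further: natural log of median RNA to DNA barcode read ratio; higher means stronger binding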
T2 chain: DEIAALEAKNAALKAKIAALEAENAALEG

[3] = biological target: T3, 4H380-AA; assay: two-hybrid library CCmax; settings: mean of both orientations;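 further: natural log of median RNA to DNA barcode read ratio; higher means stronger binding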
T3 chain: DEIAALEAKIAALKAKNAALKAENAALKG

[4] = biological target: T4, 4H3049-AA; assay: two-hybrid library CCmax; settings: mean of both orientations;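 further: natural log of median RNA to DNA barcode read ratio; higher means stronger binding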
T4 chain: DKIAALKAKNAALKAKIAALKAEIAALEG

[5] = biological target: T5, 4H3782-AA; assay: two-hybrid library CCmax; settings: mean of both orientations
T5 chain: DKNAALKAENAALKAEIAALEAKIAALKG

[6] = biological target: T6, 4H2621-AA; assay: two-hybrid library CCmax; settings: mean of both orientations
T6 chain: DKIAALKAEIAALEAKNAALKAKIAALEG

[7] = biological target: T7, 4H3129-AA; assay: two-hybrid library CCmax
T7 chain: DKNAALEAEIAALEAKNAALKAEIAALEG

[8] = biological target: T8, 4H464-AA; assay: two-hybrid library CCmax; settings: mean of both orientations
T8 chain: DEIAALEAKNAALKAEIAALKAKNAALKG

[9] = biological target: T9, 4H249-AA; assay: two-hybrid library CCmax; settings: mean of both orientations
T9 chain: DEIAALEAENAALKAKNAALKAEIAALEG

[10] = biological target: T10, 4H3595-AA; assay: two-hybrid library CCmax; settings: mean of both orientations
T10 chain: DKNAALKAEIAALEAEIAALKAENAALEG

[11] = biological target: T11, 4H3969-AA; assay: two-hybrid library CCmax; settings: mean of both orientations
T11 chain: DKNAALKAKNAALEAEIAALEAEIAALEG

[12] = biological target: T12, 4H3414-AA; assay: two-hybrid library CCmax; settings: mean of both orientations
T12 chain: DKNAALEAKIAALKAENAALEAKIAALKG

[13] = biological target: T13, 4H2961-AA; assay: two-hybrid library CCmax; settings: mean of both orientations
T13 chain: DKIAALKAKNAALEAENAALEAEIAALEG

[14] = biological target: T14, 4H2728-AA; assay: two-hybrid library CCmax; settings: mean of both orientations
T14 chain: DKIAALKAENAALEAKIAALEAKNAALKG

[15] = biological target: T15, 4H2699-AA; assay: two-hybrid library CCmax; settings: mean of both orientations
T15 chain: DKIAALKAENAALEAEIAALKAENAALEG

[16] = biological target: T16, 4H2580-AA; assay: two-hybrid library CCmax; settings: mean of both orientations
T16 chain: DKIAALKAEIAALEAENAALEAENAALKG

[17] = biological target: T17, 4H3939-AA; assay: two-hybrid library CCmax; settings: mean of both orientations
T17 chain: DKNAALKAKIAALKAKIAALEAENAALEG

[18] = biological target: T18, 4H341-AA; assay: two-hybrid library CCmax; settings: mean of both orientations
T18 chain: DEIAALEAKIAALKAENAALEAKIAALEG

[19] = biological target: T19, 4H446-AA; assay: two-hybrid library CCmax; settings: mean of both orientations
T19 chain: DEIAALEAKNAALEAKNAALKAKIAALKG

[20] = biological target: T20, 4H2903-AA; assay: two-hybrid library CCmax; settings: mean of both orientations
T20 chain: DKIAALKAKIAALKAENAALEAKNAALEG

[21] = biological target: T21, 4H3629-AA; assay: two-hybrid library CCmax; settings: mean of both orientations
T21 chain: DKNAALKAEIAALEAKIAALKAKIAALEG

[22] = biological target: T22, 4H63-AA; assay: two-hybrid library CCmax
T22 chain: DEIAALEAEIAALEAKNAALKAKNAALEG

[23] = biological target: T23, 4H2774-AA; assay: two-hybrid library CCmax; settings: mean of both orientations
T23 chain: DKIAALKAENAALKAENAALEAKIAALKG

[24] = biological target: T24, 4H626-bN; assay: two-hybrid library CCNG1
T24 chain: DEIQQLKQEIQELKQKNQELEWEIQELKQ

[25] = biological target: T25, 4H3817-bN; assay: two-hybrid library CCNG1
T25 chain: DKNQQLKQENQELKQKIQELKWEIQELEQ

[26] = biological target: T26, 4H3613-bN; assay: two-hybrid library CCNG1
T26 chain: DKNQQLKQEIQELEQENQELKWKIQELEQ

[27] = biological target: T27, 4H3628-bN; assay: two-hybrid library CCNG1
T27 chain: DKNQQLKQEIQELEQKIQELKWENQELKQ

[28] = biological target: T28, 4H3631-bN; assay: two-hybrid library CCNG1
T28 chain: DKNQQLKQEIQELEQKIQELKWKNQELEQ

[29] = biological target: T29, 4H570-bN; assay: two-hybrid library CCNG1
T29 chain: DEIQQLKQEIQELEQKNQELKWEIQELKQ

[30] = biological target: T30, 4H3926-bN; assay: two-hybrid library CCNG1
T30 chain: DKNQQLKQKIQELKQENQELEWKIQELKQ

[31] = biological target: T31, 4H584-bN; assay: two-hybrid library CCNG1
T31 chain: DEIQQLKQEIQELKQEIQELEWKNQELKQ

[32] = biological target: T32, 4H3414-bN; assay: two-hybrid library CCNG1
T32 chain: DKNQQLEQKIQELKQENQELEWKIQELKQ

[33] = biological target: T33, 4H3277-bN; assay: two-hybrid library CCNG1
T33 chain: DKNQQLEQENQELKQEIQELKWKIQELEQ

[34] = biological target: T34, 4H850-bN; assay: two-hybrid library CCNG1
T34 chain: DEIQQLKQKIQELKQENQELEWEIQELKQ

[35] = biological target: T35, 4H1985-bN; assay: two-hybrid library CCNG1
T35 chain: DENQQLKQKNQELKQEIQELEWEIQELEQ

[36] = biological target: T36, 4H3858-bN; assay: two-hybrid library CCNG1
T36 chain: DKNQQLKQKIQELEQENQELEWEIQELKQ

[37] = biological target: T37, 4H619-bN; assay: two-hybrid library CCNG1
T37 chain: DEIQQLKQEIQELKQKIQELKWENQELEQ

[38] = biological target: T38, 4H3974-bN; assay: two-hybrid library CCNG1
T38 chain: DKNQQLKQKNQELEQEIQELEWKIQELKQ

[39] = biological target: T39, 4H591-bN; assay: two-hybrid library CCNG1
T39 chain: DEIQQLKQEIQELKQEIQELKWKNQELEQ

[40] = biological target: T40, 4H3172-bN; assay: two-hybrid library CCNG1
T40 chain: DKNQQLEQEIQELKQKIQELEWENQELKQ

[41] = biological target: T41, 4H3129-bN; assay: two-hybrid library CCNG1
T41 chain: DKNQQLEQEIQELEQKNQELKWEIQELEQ

[42] = biological target: T42, 4H906-bN; assay: two-hybrid library CCNG1
T42 chain: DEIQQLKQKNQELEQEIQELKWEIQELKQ

[43] = biological target: T43, 4H3497-bN; assay: two-hybrid library CCNG1
T43 chain: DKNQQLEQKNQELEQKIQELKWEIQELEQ

[44] = biological target: T44, 4H3298-bN; assay: two-hybrid library CCNG1
T44 chain: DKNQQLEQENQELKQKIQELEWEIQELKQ

[45] = biological target: T45, 4H3162-bN; assay: two-hybrid library CCNG1
T45 chain: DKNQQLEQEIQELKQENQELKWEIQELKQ

[46] = biological target: T46, 4H3462-bN; assay: two-hybrid library CCNG1
T46 chain: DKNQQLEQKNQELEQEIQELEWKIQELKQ

[47] = biological target: T47, 4H3638-bN; assay: two-hybrid library CCNG1
T47 chain: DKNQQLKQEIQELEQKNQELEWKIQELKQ

[48] = biological target: T48, 4H3175-bN; assay: two-hybrid library CCNG1
T48 chain: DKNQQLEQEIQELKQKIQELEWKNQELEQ

[49] = biological target: T49, P5; assay: two-hybrid library CC1
T49 chain: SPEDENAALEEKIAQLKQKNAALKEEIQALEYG

[50] = biological target: T50, P6; assay: two-hybrid library CC1; settings: mean of both orientations
T50 chain: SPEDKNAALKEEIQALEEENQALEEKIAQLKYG

[51] = biological target: T51, P7; assay: two-hybrid library CC1; settings: mean of both orientations
T51 chain: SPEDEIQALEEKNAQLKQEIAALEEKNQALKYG

[52] = biological target: T52, P8; assay: two-hybrid library CC1; settings: mean of both orientations
T52 chain: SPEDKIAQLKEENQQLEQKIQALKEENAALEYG

[53] = biological target: T53, P5SC2; assay: two-hybrid library CC1; settings: mean of both orientations
T53 chain: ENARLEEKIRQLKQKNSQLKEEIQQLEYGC

[54] = biological target: T54, P8mS; assay: two-hybrid library CC1; settings: mean of both orientations
T54 chain: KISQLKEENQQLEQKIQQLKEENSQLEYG

[55] = biological target: T55, P6SC1; assay: two-hybrid library CC1; settings: mean of both orientations
T55 chain: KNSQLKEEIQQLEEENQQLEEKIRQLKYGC

[56] = biological target: T56, P5mS; assay: two-hybrid library CC1; settings: mean of both orientations
T56 chain: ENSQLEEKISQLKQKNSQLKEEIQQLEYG

[57] = biological target: T57, P7mS; assay: two-hybrid library CC1; settings: mean of both orientations
T57 chain: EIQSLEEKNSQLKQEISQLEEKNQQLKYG

[58] = biological target: T58, P9; assay: two-hybrid library CC1; settings: mean of both orientations
T58 chain: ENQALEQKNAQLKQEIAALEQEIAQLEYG

[59] = biological target: T59, P6mS; assay: two-hybrid library CC1; settings: mean of both orientations
T59 chain: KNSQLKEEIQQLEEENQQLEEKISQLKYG

[60] = biological target: T60, P6SC2; assay: two-hybrid library CC1; settings: mean of both orientations
T60 chain: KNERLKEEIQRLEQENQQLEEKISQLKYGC

[61] = biological target: T61, P5SC1; assay: two-hybrid library CC1; settings: mean of both orientations
T61 chain: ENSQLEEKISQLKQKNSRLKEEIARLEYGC

[62] = biological target: T62, P7A-bH; assay: two-hybrid library CCNG1
T62 chain: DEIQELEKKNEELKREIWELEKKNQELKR

[63] = biological target: T63, P8A-bH; assay: two-hybrid library CCNG1
T63 chain: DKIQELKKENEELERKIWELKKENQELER

[64] = biological target: T64, P6A-bH; assay: two-hybrid library CCNG1
T64 chain: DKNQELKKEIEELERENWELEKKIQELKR

[65] = biological target: T65, P5A-bH; assay: two-hybrid library CCNG1
T65 chain: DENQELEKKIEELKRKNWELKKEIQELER

[66] = biological target: T66, P9A-bH; assay: two-hybrid library CCNG1
T66 chain: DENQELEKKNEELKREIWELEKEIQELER

DENAALKAKIAALKAKNAALKAEIAALEG [4H1913-AA]
interaction score [1]: -1.12
interaction score [2]: -1.02
interaction score [3]: -2.69
interaction score [4]: -1.85
interaction score [5]: -1.16
interaction score [6]: -0.536
interaction score [7]: -0.895
interaction score [8]: -0.535
interaction score [9]: -1.83
interaction score [10]: -1.29
interaction score [11]: -0.832
interaction score [12]: 1.8
interaction score [13]: -1.61
interaction score [14]: 0.365
interaction score [15]: -0.293
interaction score [16]: 0.453
interaction score [17]: -1.9
interaction score [18]: 0.862
interaction score [19]: -1.42
interaction score [20]: -1.62
interaction score [21]: -1.21
interaction score [22]: -0.87
interaction score [23]: -0.0687

DENQQLKQKNQELKQEIQELEWEIQELEQ [4H1985-bN]
interaction score [24]: -0.889
interaction score [25]: -0.872
interaction score [26]: -1.86
interaction score [27]: -1.17
interaction score [28]: -1.53
interaction score [29]: -1.42
interaction score [30]: -1.25
interaction score [31]: -1.72
interaction score [32]: -1.17
interaction score [33]: -1.75
interaction score [34]: -1.6
interaction score [35]: -2.05
interaction score [36]: -0.987
interaction score [37]: -1.93
interaction score [38]: -1.17
interaction score [39]: -0.871
interaction score [40]: -0.909
interaction score [41]: -2.06
interaction score [42]: -1.03
interaction score [43]: -1.28
interaction score [44]: -0.626
interaction score [45]: -1.41
interaction score [46]: -1.4
interaction score [47]: -1.17
interaction score [48]: -2.05

SPEDENAALEEKIAQLKQKNAALKEEIQALEYG [P5]
interaction score [49]: -2.89
interaction score [50]: 0.207
interaction score [51]: -2.59
interaction score [52]: -1.39
interaction score [53]: -2.84
interaction score [54]: -2.62
interaction score [55]: 0.186
interaction score [56]: -2.94
interaction score [57]: -2.8
interaction score [58]: -2.12
interaction score [59]: 0.1
interaction score [60]: 0.252
interaction score [61]: -2.93

DENQELEKKIEELKRKNWELKKEIQELER [P5A-bH]
interaction score [62]: -0.756
interaction score [63]: 1.32
interaction score [64]: 1.49
interaction score [65]: -1.13
interaction score [66]: -0.708
